Biological target: RNA polymerase β subunit of Escherichia coli (Escherichia coli, UniProt P0A8V2 1-1342)
Test: cryo-EM structure

Sequence of RNA polymerase β subunit of Escherichia coli (P0A8V2 whole entry): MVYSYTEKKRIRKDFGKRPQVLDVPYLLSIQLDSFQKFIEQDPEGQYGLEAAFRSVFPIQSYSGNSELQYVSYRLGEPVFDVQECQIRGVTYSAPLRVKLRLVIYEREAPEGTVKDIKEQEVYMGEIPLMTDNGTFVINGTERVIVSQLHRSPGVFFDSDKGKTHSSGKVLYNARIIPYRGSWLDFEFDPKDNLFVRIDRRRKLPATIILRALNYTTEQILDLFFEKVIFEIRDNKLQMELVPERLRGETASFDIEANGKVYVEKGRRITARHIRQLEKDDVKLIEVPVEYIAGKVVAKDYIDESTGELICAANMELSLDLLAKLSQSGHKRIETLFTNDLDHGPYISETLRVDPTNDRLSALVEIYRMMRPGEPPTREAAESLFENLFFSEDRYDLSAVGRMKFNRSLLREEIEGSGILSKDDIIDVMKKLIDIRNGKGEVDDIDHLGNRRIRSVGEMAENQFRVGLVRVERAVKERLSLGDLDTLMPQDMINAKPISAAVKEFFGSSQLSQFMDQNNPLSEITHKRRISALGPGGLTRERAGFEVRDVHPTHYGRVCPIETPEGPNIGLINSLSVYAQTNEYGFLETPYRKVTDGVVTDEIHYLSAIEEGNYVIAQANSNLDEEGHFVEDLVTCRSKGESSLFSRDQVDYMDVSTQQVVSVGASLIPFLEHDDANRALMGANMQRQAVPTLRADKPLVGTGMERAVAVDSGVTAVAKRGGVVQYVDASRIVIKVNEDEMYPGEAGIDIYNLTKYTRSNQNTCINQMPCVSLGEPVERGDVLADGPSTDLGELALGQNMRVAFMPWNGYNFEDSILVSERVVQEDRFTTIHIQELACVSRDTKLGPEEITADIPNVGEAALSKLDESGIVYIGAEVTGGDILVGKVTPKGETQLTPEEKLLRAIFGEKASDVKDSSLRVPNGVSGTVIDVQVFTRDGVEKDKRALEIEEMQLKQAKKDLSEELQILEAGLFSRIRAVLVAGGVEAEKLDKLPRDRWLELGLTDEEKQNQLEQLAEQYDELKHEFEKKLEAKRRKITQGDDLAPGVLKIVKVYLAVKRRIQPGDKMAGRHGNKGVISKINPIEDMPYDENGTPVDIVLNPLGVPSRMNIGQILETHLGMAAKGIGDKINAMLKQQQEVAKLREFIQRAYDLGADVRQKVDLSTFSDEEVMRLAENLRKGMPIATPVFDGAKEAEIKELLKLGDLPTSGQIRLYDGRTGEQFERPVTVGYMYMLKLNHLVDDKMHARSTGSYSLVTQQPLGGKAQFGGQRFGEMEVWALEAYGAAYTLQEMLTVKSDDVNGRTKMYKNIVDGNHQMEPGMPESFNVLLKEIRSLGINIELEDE

B1: TraR (natural protein, Escherichia coli)
chain: SDEADEAYSVTEQLTMTGINRIRQKINAHGIPVYLCEACGNPIPEARRKIFPGVTLCVECQAYQERQRKHYA
binding result: binds

Reference: paper PMC7166197 (Molecular cell, 2020)
